Where no end group is shown, it is not given here.

The test system of data set [1] is tumor cells from CLL patients. Nature of the data set: 51Chromium release assay on tumor cells from CLL patients. Type of data set: cell-based, human. The conditions noted are these: CTL induction with the peptide. How it is done: For the induction of OFA/iLR peptide-specific CTL obtained from patients with CLL CDS^+ T cells were separated from PBMC using immunomagnetic beads (MACS®, Miltenyi, Bergisch-Gladbach, Germany) and co-cultured with autologous irradiated OFA/iLR peptide-pulsed CD8^+/CD4^+-depleted PBMC. CTL were weekly restimulated with autologous irradiated peptide-pulsed CD8^+ICD4^+-depleted PBMC in the presence of IL-2 (20IU/ml; CellConcepts, Weisskirch, Germany) and IL-7 (10ng/ml; PeproTech, Hamburg, Germany). After at least four weekly restimulations, CTL reactivity was determined in a conventional 4h ^51Chromium release assay. Antibody blocking experiments were performed as previously described (Zeis M, Siegel S, Schmitz M et al. Induction of cytotoxic T lymphocytes against hematologic neoplasms by survivin RNA-transfected dendritic cells. J Immunol. 2003; 170, 5391-5397).
T cells specific for HLA-A* 02-restricted iLR-ASK-a2 peptide were tested in a standard ^51Chromium release assay on tumor cells from CLL patients.

Data set [2] deals with T1, HLA-A*0201 molecule on the TAP-deficient T2 cell line (human).
T1 construct: whole, on cells; MHC class I on T2 cells, loaded with peptide from outside; also called HLA-A2-molecule; HLA-A*02-molecule
The data set is described as follows: T2 binding assay.

The target of data set [3] is T1, HLA-A*0201 molecule on the …. Nature of the data set: T2 binding assay, compared with the native peptide SEQ ID No. 2.

“VAIENPADV [natural processed iLR66-74 peptide]”: the “cytotoxicity obtained by stimulation of patients PBMC with the peptide” value in data set [1] was “no cytotoxicity”.

B1: native iLR66-74, naturally processed OFA/iLR peptide (VAIENPADV) (peptide)
peptide: VAIENPADV
notes: Synthetic 9-mer; also called naturally processed iLR peptide; naturally processed peptide
Turning to B1, the binding result in data set [2] is “binds”.

B2: iLR-ASK-A2 66-74 modified OFA/iLR peptide (VLIENPADV) (peptide)
peptide: VLIENPADV
notes: It is OFA/iLRP AA66-AA74 with the second residue changed from Ala to Leu; also called modified peptide
As to B2, in data set [3], the binding result was “binds”.

Values taken from patent EP2330122A1, “OFA/iLRP derived modified peptide” (Asklepios Kliniken Hamburg Gmbh, priority 2009, dated 2011).
